Source: patent US20050058747

Key:
[1] = target: Soybean agglutinin (SBA), P05046
[2] = target: T1, soybean Bowman-Birk inhibitor, P01055
T1 chain: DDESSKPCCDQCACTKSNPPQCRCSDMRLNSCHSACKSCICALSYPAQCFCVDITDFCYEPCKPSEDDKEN

[3] = target: T2, soybean Kunitz trypsin inhibitor, P01070
T2 chain: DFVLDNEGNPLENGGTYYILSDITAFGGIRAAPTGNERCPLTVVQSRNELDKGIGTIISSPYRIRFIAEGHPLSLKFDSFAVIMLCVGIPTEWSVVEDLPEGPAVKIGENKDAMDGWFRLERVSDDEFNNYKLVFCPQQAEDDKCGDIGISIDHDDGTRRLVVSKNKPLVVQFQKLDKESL

Sequence of Soybean agglutinin (SBA), P05046 (P05046 33-285): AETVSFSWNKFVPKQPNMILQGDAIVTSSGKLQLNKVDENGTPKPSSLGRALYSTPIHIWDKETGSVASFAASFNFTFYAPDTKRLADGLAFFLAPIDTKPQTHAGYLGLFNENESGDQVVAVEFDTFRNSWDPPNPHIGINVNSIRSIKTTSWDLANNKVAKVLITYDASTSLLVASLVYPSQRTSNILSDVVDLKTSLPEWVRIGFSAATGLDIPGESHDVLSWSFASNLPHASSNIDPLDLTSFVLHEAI

B1: protease of the invention having amino acids 1-188 of SEQ ID NO: 2 (protease derived from Nocardiopsis dassonvillei subsp. dassonvillei DSM 43235) (protein)
chain: ADIIGGLAYYMGGRCSVGFAATNSAGQPGFVTAGHCGTVGTGVTIGNGTGTFQNSVFPGNDAAFVRGTSNFTLTNLVSRYNSGGYQSVTGTSQAPAGSAVCRSGSTTGWHCGTIQARNQTVRYPQGTVYSLTRTNVCAEPGDSGGSFISGSQAQGVTSGGSGNCSVGGTTYYQEVTPMINSWGVRIRT
**Q.** With B1 as the protein, how does the Percentage degradation of isolated soy proteins [1] read?
**A.** The Percentage degradation of isolated soy proteins was 95%.

**Q.** And the Percentage degradation of isolated soy proteins (Soybean beta-conglycinin)?
**A.** Its Percentage degradation of isolated soy proteins is 100%.

**Q.** And the Percentage degradation of isolated soy proteins (Soybean glycinin)?
**A.** The Percentage degradation of isolated soy proteins was 100%.

**Q.** What about the Percentage degradation of isolated soy proteins [2] of the same protein?
**A.** The Percentage degradation of isolated soy proteins was 81%.

**Q.** And the Percentage degradation of isolated soy proteins [3]?
**A.** The Percentage degradation of isolated soy proteins was 97%.
